Reference: IntAct's records for PubMed 31262713

B1: Protein Niban 2 (Homo sapiens), Q96TA1 (parent)
chain: MGDVLSTHLDDARRQHIAEKTGKILTEFLQFYEDQYGVALFNSMRHEIEGTGLPQAQLLWRKVPLDERIVFSGNLFQHQEDSKKWRNRFSLVPHNYGLVLYENKAAYERQVPPRAVINSAGYKILTSVDQYLELIGNSLPGTTAKSGSAPILKCPTQFPLILWHPYARHYYFCMMTEAEQDKWQAVLQDCIRHCNNGIPEDSKVEGPAFTDAIRMYRQSKELYGTWEMLCGNEVQILSNLVMEELGPELKAELGPRLKGKPQERQRQWIQISDAVYHMVYEQAKARFEEVLSKVQQVQPAMQAVIRTDMDQIITSKEHLASKIRAFILPKAEVCVRNHVQPYIPSILEALMVPTSQGFTEVRDVFFKEVTDMNLNVINEGGIDKLGEYMEKLSRLAYHPLKMQSCYEKMESLRLDGLQQRFDVSSTSVFKQRAQIHMREQMDNAVYTFETLLHQELGKGPTKEELCKSIQRVLERVLKKYDYDSSSVRKRFFREALLQISIPFLLKKLAPTCKSELPRFQELIFEDFARFILVENTYEEVVLQTVMKDILQAVKEAAVQRKHNLYRDSMVMHNSDPNLHLLAEGAPIDWGEEYSNSGGGGSPSPSTPESATLSEKRRRAKQVVSVVQDEEVGLPFEASPESPPPASPDGVTEIRGLLAQGLRPESPPPAGPLLNGAPAGESPQPKAAPEASSPPASPLQHLLPGKAVDLGPPKPSDQETGEQVSSPSSHPALHTTTEDSAGVQTEF

How the values were obtained:
[1] = variants of: B1; conditions: with keap1_human KEAP1, Q14145
Sequence of keap1_human KEAP1, Q14145 (Q14145 whole entry): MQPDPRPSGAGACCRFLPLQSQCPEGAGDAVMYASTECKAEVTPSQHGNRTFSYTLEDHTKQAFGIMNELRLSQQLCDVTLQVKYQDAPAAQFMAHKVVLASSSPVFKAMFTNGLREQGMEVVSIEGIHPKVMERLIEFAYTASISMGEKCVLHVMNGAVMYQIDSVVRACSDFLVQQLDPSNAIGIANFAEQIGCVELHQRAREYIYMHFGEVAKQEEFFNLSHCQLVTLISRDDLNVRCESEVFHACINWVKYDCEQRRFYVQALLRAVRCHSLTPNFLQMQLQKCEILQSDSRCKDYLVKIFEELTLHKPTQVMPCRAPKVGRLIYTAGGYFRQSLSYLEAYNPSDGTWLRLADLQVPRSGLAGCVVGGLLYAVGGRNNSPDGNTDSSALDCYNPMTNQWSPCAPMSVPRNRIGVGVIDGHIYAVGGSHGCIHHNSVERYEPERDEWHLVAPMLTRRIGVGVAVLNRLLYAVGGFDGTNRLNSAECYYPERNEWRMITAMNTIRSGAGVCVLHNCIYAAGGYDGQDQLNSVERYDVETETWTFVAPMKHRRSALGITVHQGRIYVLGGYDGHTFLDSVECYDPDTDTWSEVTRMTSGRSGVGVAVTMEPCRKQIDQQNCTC

[2] = variants of: B1; conditions: with keap1_human KEAP1, Q14145; remark: listed apart in the source

effect of a mutation on the interaction [1] | effect of a mutation on the interaction [2] | Variant
disrupting interaction strength |  | E718A;T719A
with no effect | disrupting interaction strength | G710A
disrupting interaction strength | disrupting interaction strength | G710A;E718A;T719A
